Test results taken from patent US20180095066A1 (OXFORD NANOPORE TECHNOLOGIES, published 2018).
Where a chain is given by its changes, count along the chain named. Names may count otherwise.

T1: MspA-((Del-L74/G75/D118/L119)D56N/E59R/L88N/D90N/D91N/N108P/Q126R/D134R/E139K) monomer (Mycobacterium smegmatis, UniProt A0QR29 28-211)
T1 construct: Seven copies in each of the 7:1 pores MspA 2, MspA 3 and MspA 7; also called untagged monomer of MspA 2, MspA 3 and MspA 7
T1 chain: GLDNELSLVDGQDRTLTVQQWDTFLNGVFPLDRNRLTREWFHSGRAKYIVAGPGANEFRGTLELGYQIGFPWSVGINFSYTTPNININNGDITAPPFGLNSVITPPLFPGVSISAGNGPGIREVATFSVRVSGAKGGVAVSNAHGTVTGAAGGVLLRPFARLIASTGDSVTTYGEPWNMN

B1: MspA-(G75S/G77S/L88N/D90N/D91N/D93N/D118R/Q126R/D134R/E139K) monomer (other)
chain: GLDNELSLVDGQDRTLTVQQWDTFLNGVFPLDRNRLTREWFHSGRAKYIVAGPGADEFEGTLELGYQIGFPWSLSVSINFSYTTPNININNGNITAPPFGLNSVITPNLFPGVSISARLGNGPGIREVATFSVRVSGAKGGVAVSNAHGTVTGAAGGVLLRPFARLIASTGDSVTTYGEPWNMN
notes: Made by coupled in vitro transcription and translation (35S-methionine) with rabbit red blood cell membranes; eight copies in the homo-oligomer; also called untagged monomer; untagged version
B2: MspA-(G75S/G77S/L88N/D90N/D91N/D93N/D118R/Q126R/D134R/E139K/BasTL) monomer (other)
chain: GLDNELSLVDGQDRTLTVQQWDTFLNGVFPLDRNRLTREWFHSGRAKYIVAGPGADEFEGTLELGYQIGFPWSLSVSINFSYTTPNININNGNITAPPFGLNSVITPNLFPGVSISARLGNGPGIREVATFSVRVSGAKGGVAVSNAHGTVTGAAGGVLLRPFARLIASTGDSVTTYGEPWNMNDNQKALEEQMNSINSVNDKLNKGKGKLSLSMNGNQLKATSSNAGYGISYEDKNWGIFVNGEKVYTFNEKSTVGNISNDINKLNIKGPYIEIKKI
notes: also called monomer tagged with full length BasTL
B3: MspA-((Del-L74/G75/D118/L119)D56N/E59R/L88N/D91N/Q126R/D134R/E139K/BasTL/H6) monomer (other)
chain: GLDNELSLVDGQDRTLTVQQWDTFLNGVFPLDRNRLTREWFHSGRAKYIVAGPGANEFRGTLELGYQIGFPWSVGINFSYTTPNINIDNGDITAPPFGLNSVITPNLFPGVSISAGNGPGIREVATFSVRVSGAKGGVAVSNAHGTVTGAAGGVLLRPFARLIASTGDSVTTYGEPWNMNDNQKALEEQMNSINSVNDKLNKGKGKLSLSMNGNQLKATSSNAGYGISYEDKNWGIFVNGEKVYTFNEKSTVGNISNDINKLNIKGPYIEIKKIHHHHHH
notes: also called tagged monomer of MspA 1
B4: MspA-((Del-L74/G75/D118/L119)D56N/E59R/L88N/D91N/N108P/Q126R/D134R/E139K/BasTL/H6) monomer (other)
chain: B3 chain with N106P
notes: One copy in MspA 2 (7:1); also called tagged monomer of MspA 2; monomer unit with the BasTL-H6 attached
B5: MspA-(G75S/G77S/L88N/D90N/D91N/D93N/D118R/Q126R/D134R/E139K/D10H6) monomer (other)
chain: GLDNELSLVDGQDRTLTVQQWDTFLNGVFPLDRNRLTREWFHSGRAKYIVAGPGADEFEGTLELGYQIGFPWSLSVSINFSYTTPNININNGNITAPPFGLNSVITPNLFPGVSISARLGNGPGIREVATFSVRVSGAKGGVAVSNAHGTVTGAAGGVLLRPFARLIASTGDSVTTYGEPWNMNDDDDDDDDDDHHHHHH
notes: also called D10H6 tagged monomer
B6: MspA-((Del-L74/G75/D118/L119)D56N/E59R/L88N/D90N/D91N/Q126R/D134R/E139K) monomer (other)
chain: T1 chain with P106N
notes: Pore-forming monomer; Seven copies in MspA 1 (7:1), eight in the homo-oligomer MspA 6; also called untagged monomer of MspA 1; monomer of MspA 6

Columns and labels:
[1] = biological target: the molecule itself; assay: IVTT with rRBCM, 7.5% Tris HCl gel, autoradiography
[2] = biological target: B1; assay: IVTT of mixed DNA (2:1 untagged:tagged) with rRBCM, 7.5% Tris HCl gel, autoradiography
[3] = biological target: B6; assay: co-expression in E. coli, His column, gel filtration, gel; 7:1 hetero-oligomer
[4] = biological target: T1, MspA-(Del-L74/G75/D118/L119)D56N/E59R/L …; assay: co-expression under 14 induction conditions, NiNTA batch purification, 10% TGX gel
[5] = biological target: the molecule itself; assay: IVTT with rRBCM, 5% Tris HCl gel, autoradiography; homo-oligomerisation
[6] = biological target: the molecule itself; assay: 10% TGX gel, coomassie; homo-octamer, broken into monomers at 100 C in 50% DMSO

Does B1 bind [1]?
Result: binds

Does B2 bind [2]?
Result: binds

Does B3 bind [3]?
Result: binds

Does B4 bind [4]?
Result: binds

Does B5 bind [5]?
Result: no binding

Does B6 bind [6]?
Result: binds
